The values that follow come from the supplement of paper PMC9732359.

± gives the uncertainty stated by the source.

This series is described as follows: protein stability index of a GFP-peptide fusion (yeast GPS) (PSI 1-4); higher = more stable; sorted into four equal gates, so the index is relative within each strain. The method in brief:
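Tiled yeast protein peptides of 17 residues were each joined downstream of GFP, on plasmids that also express Cherry. The pooled library was maintained in yeast, and mid-log cultures in leucine-free medium were sorted into four equal gates on the GFP/Cherry ratio. Plasmids from every gate were amplified by PCR and sequenced on Illumina, with barcodes linking reads to strains. The protein stability index of a peptide is its gate-number-weighted read frequency summed over the gates.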

In the case of ANPKKLALMTAHSLSPK [CDC53], the protein stability index reads like this: (doa10∆) 2.43 ± 0.052; (pdr5∆) 2.78 ± 0.054; (san1∆) 2.72 ± 0.057; (ubr1∆) 2.32 ± 0.036.

VNRQSPLFFVDLKLLFN [RGR1]: the protein stability index runs as follows: (doa10∆) 1.53 ± 0.065; (pdr5∆) 1.54 ± 0.074; (san1∆) 1.29 ± 0.13; (ubr1∆) 1.23 ± 0.11.

Regarding RKLAVERAGHLLCDKAQ [PRE5], the protein stability index by setting is: (doa10∆) 3.47 ± 0.15; (pdr5∆) 3.18 ± 0.11; (san1∆) 3.12 ± 0.072; (ubr1∆) 3.37 ± 0.14.

On to TPQQLQMIQQRHQQLLR [SNF5], for which the protein stability index was 1.9 ± 0.044 (doa10∆), 2.32 ± 0.045 (pdr5∆), 2.04 ± 0.052 (san1∆) and 1.74 ± 0.045 (ubr1∆).

Regarding LYNDADVLTLENIQEGT [CDC53], the protein stability index amounted to 3.18 ± 0.1 (doa10∆), 3.03 ± 0.087 (pdr5∆), 3.17 ± 0.044 (san1∆) and 3.2 ± 0.046 (ubr1∆).

With DKRFSGSLKLPNCPRPN [RPL1A], the protein stability index by setting is: (doa10∆) 2.77 ± 0.073; (pdr5∆) 3.05 ± 0.052; (san1∆) 2.94 ± 0.051; (ubr1∆) 2.6 ± 0.046.

Under “ubr1∆”, QNVAGDKTAVKLDTEVK [SWP82] yielded a protein stability index of 3.32 ± 0.089.

On to SLQQMQHLQQLKMQQQQ [GAL11], for which the protein stability index runs as follows: (doa10∆) 2.05 ± 0.096; (pdr5∆) 2.09 ± 0.06; (san1∆) 2.36 ± 0.099; (ubr1∆) 1.41 ± 0.08.

For SQFINDHILFTKTFIFI [SRB8], the protein stability index is 1.56 ± 0.054 (doa10∆), 1.48 ± 0.056 (pdr5∆), 1.47 ± 0.089 (san1∆) and 1.41 ± 0.033 (ubr1∆).

Take KNPHDIIEGINAGEIEI [RPL12A]: the protein stability index reads like this: (doa10∆) 2.66 ± 0.075; (pdr5∆) 2.44 ± 0.075; (san1∆) 2.22 ± 0.096; (ubr1∆) 2.34 ± 0.06.

YGITHGLTNWAAAYATG [RPL5] came in with a protein stability index (doa10∆) of 2.17 ± 0.086, a protein stability index (pdr5∆) of 2.43 ± 0.067, a protein stability index (san1∆) of 2.28 ± 0.09 and a protein stability index (ubr1∆) of 2.26 ± 0.056.

For the sequence WTMAFRTMDDIKDSVRE [ECM29], the protein stability index runs as follows: (pdr5∆) 2.5 ± 0.16; (san1∆) 2.67 ± 0.11; (ubr1∆) 2.66 ± 0.12.

The sequence WPIVQKTYEPVLNEDDL [RPN5] came in with a protein stability index (doa10∆) of 2.32 ± 0.068, a protein stability index (pdr5∆) of 2.59 ± 0.11, a protein stability index (san1∆) of 1.85 ± 0.098 and a protein stability index (ubr1∆) of 2.27 ± 0.071.

As to YWQYKAGIPIGLKRSQL [SWP82], the protein stability index is 1.7 ± 0.13 (doa10∆), 1.57 ± 0.081 (pdr5∆), 1.69 ± 0.15 (san1∆) and 1.49 ± 0.049 (ubr1∆).

As to KSSLYSAQDLLDKHERK [YIL149C/MLP2], the protein stability index is, setting by setting: (doa10∆) 3.05 ± 0.084; (pdr5∆) 3.01 ± 0.075; (san1∆) 2.83 ± 0.11; (ubr1∆) 3.15 ± 0.036.

On to VFTALLRLFINEEGDWS [ITC1], for which the protein stability index reads like this: (doa10∆) 3.4 ± 0.29; (pdr5∆) 2.08 ± 0.17.

For the sequence IIKQTVHPIPDVAFADG [YMR129W/POM152], the protein stability index by setting is: (doa10∆) 2.8 ± 0.053; (pdr5∆) 2.89 ± 0.062; (san1∆) 2.77 ± 0.046; (ubr1∆) 2.82 ± 0.043.

Regarding EVYEALKEVLYNDSATS [RPN2], the protein stability index reads like this: (doa10∆) 3.34 ± 0.18; (pdr5∆) 3.45 ± 0.15; (ubr1∆) 3.46 ± 0.08.

With SLFHIVVDTEETATLIM [SMC3], the protein stability index came to 2.35 ± 0.15 (doa10∆), 2.17 ± 0.15 (pdr5∆), 1.68 ± 0.17 (san1∆) and 2.23 ± 0.098 (ubr1∆).

As for MSIVFGDKFSEDFRIQF [UBP6], the protein stability index was 3.28 ± 0.13 (doa10∆), 2.71 ± 0.1 (pdr5∆), 2.2 ± 0.092 (san1∆) and 2.37 ± 0.063 (ubr1∆).

On to FWSFLDSLIFKDSSLNY [YJL039C/NUP192], for which the protein stability index by setting is: (doa10∆) 3.22 ± 0.076; (pdr5∆) 2.74 ± 0.078; (san1∆) 2.11 ± 0.15; (ubr1∆) 2.46 ± 0.079.

As for ELAKEAKKSTTISKEST [ESC2], the protein stability index by setting is: (doa10∆) 2.55 ± 0.13; (pdr5∆) 2.47 ± 0.14; (san1∆) 2.63 ± 0.21; (ubr1∆) 2.85 ± 0.063.

RIVGSELIQKYLGDGPR [RPT2]: the protein stability index is, setting by setting: (doa10∆) 2.21 ± 0.14; (pdr5∆) 3.14 ± 0.16; (san1∆) 3.33 ± 0.27; (ubr1∆) 3.11 ± 0.13.

In turn, TKLIISGQLNFEIDGDV [PCI8] yielded a protein stability index (doa10∆) of 2.57 ± 0.099, a protein stability index (pdr5∆) of 2.16 ± 0.093, a protein stability index (san1∆) of 1.87 ± 0.11 and a protein stability index (ubr1∆) of 2.23 ± 0.055.

For EETPSKTNKISILKRHS [NUT1], the protein stability index (ubr1∆) is 3.1 ± 0.17.

In turn, VPLTKRYQHLEKITQIS [PCI8] showed a protein stability index (doa10∆) of 2.39 ± 0.28, a protein stability index (pdr5∆) of 2.22 ± 0.11 and a protein stability index (ubr1∆) of 1.71 ± 0.096.

KSGRINGFHGRLGDLGV [SMC4] came in with a protein stability index (doa10∆) of 3.41 ± 0.11, a protein stability index (pdr5∆) of 3.43 ± 0.093, a protein stability index (san1∆) of 3.13 ± 0.1 and a protein stability index (ubr1∆) of 3.31 ± 0.045.
